Numbered stars: 1 amine (or outer) side, 2 acyl side, 3 side chain; on linkers, the order of the positions; unused ones are H or OH. Bridge positions count the residues as written; N and C are the ends. Square brackets hold non-standard residues; d marks the D form. Ends that are not written are not given here. Bip = N[C@@H](Cc1ccc(-c2ccccc2)cc1)C(=O)O; 1Nal = N[C@@H](Cc1cccc2ccccc12)C(=O)O; 2Nal = N[C@@H](Cc1ccc2ccccc2c1)C(=O)O; TBMB = c1c(C[*:1])cc(C[*:3])cc1C[*:2]; 3Pal = N[C@@H](Cc1cccnc1)C(=O)O; 4Pal = N[C@@H](Cc1ccncc1)C(=O)O; Cha = N[C@@H](CC1CCCCC1)C(=O)O
biological target: T1, biotinylated human plasma Kallikrein (human, UniProt P03952 20-638, biotinylated); assay: phage binding assay
T1 construct: also called Biotinylated hPK
Protocol: (§1) Library transformant colonies, or selection output colonies, were picked and grown as individual cultures in 2TY broth containing selective antibiotic. The picked colonies were DNA-sequenced using a QIAgen PyroMark Q96 DNA sequencer to reveal the amino-acid substitution present in each clone, and were assayed for human plasma Kallikrein binding as follows. The phage-containing supernatant was harvested from the culture and phage were cyclised with tris bromomethyl benzene(TBMB) based on the methods of Heinis et al (Nature Chemical Biology vol. 5 pp 502-507 (2009)). The purified phage from this process were assayed for binding to biotinylated human plasma Kallikrein using a homogeneous plate-based binding assay; assay read-out measured on a BMG Labtech Pherastar FS plate reader. The quantitative binding data from duplicate assay samples was averaged (mean) and expressed as signal:background. […] The assay data was correlated with the peptide sequences.
A library was constructed where positions 1, 6, 7, 8, 9 &10 of 06-34-03 were fixed and positions 2, 3, 4 & 5 were randomised (see 'Randomisation of peptide domains—Library construction' in Methods above). Selections against human plasma Kallikrein were performed at a variety of stringencies (see 'Phage selections' in Methods above). All output sequences were identified and analysed for target binding (see 'Randomisation of peptide domains—Assay of binding of individual clones' in Methods above). Table 17 lists each unique sequence, its relative abundance in the selection output (frequency), and a rank number according to target binding strength.

T1 sequence (P03952 20-638 limits assumed): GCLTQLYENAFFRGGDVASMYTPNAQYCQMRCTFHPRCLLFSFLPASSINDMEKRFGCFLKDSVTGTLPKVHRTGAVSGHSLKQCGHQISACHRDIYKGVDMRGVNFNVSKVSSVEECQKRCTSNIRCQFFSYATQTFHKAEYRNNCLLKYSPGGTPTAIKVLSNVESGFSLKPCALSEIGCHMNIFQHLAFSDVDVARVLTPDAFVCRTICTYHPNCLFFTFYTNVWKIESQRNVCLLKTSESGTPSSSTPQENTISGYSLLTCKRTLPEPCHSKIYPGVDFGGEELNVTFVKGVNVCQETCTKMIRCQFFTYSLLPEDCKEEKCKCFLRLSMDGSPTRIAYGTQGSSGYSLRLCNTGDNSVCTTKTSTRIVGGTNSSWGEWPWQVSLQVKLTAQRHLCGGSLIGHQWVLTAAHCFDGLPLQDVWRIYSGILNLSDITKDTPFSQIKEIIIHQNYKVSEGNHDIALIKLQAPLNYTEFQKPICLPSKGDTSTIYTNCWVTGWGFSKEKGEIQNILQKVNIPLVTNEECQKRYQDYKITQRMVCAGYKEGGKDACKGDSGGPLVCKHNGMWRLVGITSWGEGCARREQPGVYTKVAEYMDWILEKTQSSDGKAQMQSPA

Row | Binder | Rank (by Kallikrein binding)
1 | CSWPARCTHQDLC (linker 1-7-13 via TBMB) [SEQ ID NO 73] | 1

biological target: T2, human plasma Kallikrein (human, UniProt P03952 20-638, limits assumed); assay: enzyme inhibition assay
T2 construct: also called hPK; human PK
T2 sequence (P03952 20-638 limits assumed): as above

Row | Binder | Ki [nM]
2 | Ac-CSFP[1Nal]RCLHQDLC-NH2 (linker 1-7-13 via TBMB; SMILES CC(=O)N[C@H]1CSCc2cc3cc(c2)CSC[C@H](NC(=O)[C@H](CCCNC(=N)N)NC(=O)[C@H](Cc2cccc4ccccc24)NC(=O)[C@@H]2CCCN2C(=O)[C@H](Cc2ccccc2)NC(=O)[C@H](CO)NC1=O)C(=O)N[C@@H](CC(C)C)C(=O)N[C@@H](Cc1c[nH]cn1)C(=O)N[C@@H](CCC(N)=O)C(=O)N[C@@H](CC(=O)O)C(=O)N[C@@H](CC(C)C)C(=O)N[C@H](C(N)=O)CSC3) [Ac-(06-34-18) Phe2 1Nal4] | 13.5
3 | Ac-CSFP[Cha]RCLHQDLC-NH2 (linker 1-7-13 via TBMB; SMILES CC(=O)N[C@H]1CSCc2cc3cc(c2)CSC[C@H](NC(=O)[C@H](CCCNC(=N)N)NC(=O)[C@H](CC2CCCCC2)NC(=O)[C@@H]2CCCN2C(=O)[C@H](Cc2ccccc2)NC(=O)[C@H](CO)NC1=O)C(=O)N[C@@H](CC(C)C)C(=O)N[C@@H](Cc1c[nH]cn1)C(=O)N[C@@H](CCC(N)=O)C(=O)N[C@@H](CC(=O)O)C(=O)N[C@@H](CC(C)C)C(=O)N[C@H](C(N)=O)CSC3) [Ac-(06-34-18) Phe2 Cha4] | 0.91
4 | Ac-CSFP[Bip]RCLHQDLC-NH2 (linker 1-7-13 via TBMB) [Ac-(06-34-18) Phe2 4,4-BPal4] | 10.5
5 | Ac-CS[4Pal]PYRCLHQDLC-NH2 (linker 1-7-13 via TBMB) [Ac-(06-34-18) 4Pal2 Tyr4] | 3.56
6 | Ac-CS[3Pal]PYRCLHQDLC-NH2 (linker 1-7-13 via TBMB) [Ac-(06-34-18) 3Pal2 Tyr4] | 0.91
7 | Ac-CS[Cha]PYRCLHQDLC-NH2 (linker 1-7-13 via TBMB) [Ac-(06-34-18) Cha2 Tyr4] | 1.87
8 | Ac-CSFP[3Pal]RCLHQDLC-NH2 (linker 1-7-13 via TBMB) [Ac-(06-34-18) Phe2 3Pal4] | 2.57
9 | Ac-CSFP[4Pal]RCLHQDLC-NH2 (linker 1-7-13 via TBMB; SMILES CC(=O)N[C@H]1CSCc2cc3cc(c2)CSC[C@H](NC(=O)[C@H](CCCNC(=N)N)NC(=O)[C@H](Cc2ccncc2)NC(=O)[C@@H]2CCCN2C(=O)[C@H](Cc2ccccc2)NC(=O)[C@H](CO)NC1=O)C(=O)N[C@@H](CC(C)C)C(=O)N[C@@H](Cc1c[nH]cn1)C(=O)N[C@@H](CCC(N)=O)C(=O)N[C@@H](CC(=O)O)C(=O)N[C@@H](CC(C)C)C(=O)N[C@H](C(N)=O)CSC3) [Ac-(06-34-18) Phe2 4Pal4] | 2.2
10 | Ac-CSFP[2Nal]RCLHQDLC-NH2 (linker 1-7-13 via TBMB) [Ac-(06-34-18) Phe2 2Nal4] | 7.27

biological target: T2, human plasma Kallikrein; assay: enzyme inhibition assay; remark: another data set of the same source

Row | Binder | Ki [nM]
11 | Ac-CS[3Pal]PARCLHQDLC-NH2 (linker 1-7-13 via TBMB; SMILES CC(=O)N[C@H]1CSCc2cc3cc(c2)CSC[C@H](NC(=O)[C@H](CCCNC(=N)N)NC(=O)[C@H](C)NC(=O)[C@@H]2CCCN2C(=O)[C@H](Cc2cccnc2)NC(=O)[C@H](CO)NC1=O)C(=O)N[C@@H](CC(C)C)C(=O)N[C@@H](Cc1c[nH]cn1)C(=O)N[C@@H](CCC(N)=O)C(=O)N[C@@H](CC(=O)O)C(=O)N[C@@H](CC(C)C)C(=O)N[C@H](C(N)=O)CSC3) [Ac-(06-34-18) 3Pal2] | 59
12 | Ac-CS[2Nal]PARCLHQDLC-NH2 (linker 1-7-13 via TBMB; SMILES CC(=O)N[C@H]1CSCc2cc3cc(c2)CSC[C@H](NC(=O)[C@H](CCCNC(=N)N)NC(=O)[C@H](C)NC(=O)[C@@H]2CCCN2C(=O)[C@H](Cc2ccc4ccccc4c2)NC(=O)[C@H](CO)NC1=O)C(=O)N[C@@H](CC(C)C)C(=O)N[C@@H](Cc1c[nH]cn1)C(=O)N[C@@H](CCC(N)=O)C(=O)N[C@@H](CC(=O)O)C(=O)N[C@@H](CC(C)C)C(=O)N[C@H](C(N)=O)CSC3) [Ac-(06-34-18) 2NAL2] | 0.5
13 | Ac-CS[Cha]PARCLHQDLC-NH2 (linker 1-7-13 via TBMB; SMILES CC(=O)N[C@H]1CSCc2cc3cc(c2)CSC[C@H](NC(=O)[C@H](CCCNC(=N)N)NC(=O)[C@H](C)NC(=O)[C@@H]2CCCN2C(=O)[C@H](CC2CCCCC2)NC(=O)[C@H](CO)NC1=O)C(=O)N[C@@H](CC(C)C)C(=O)N[C@@H](Cc1c[nH]cn1)C(=O)N[C@@H](CCC(N)=O)C(=O)N[C@@H](CC(=O)O)C(=O)N[C@@H](CC(C)C)C(=O)N[C@H](C(N)=O)CSC3) [Ac-(06-34-18) Cha2] | 4.7
14 | Ac-CS[1Nal]PARCLHQDLC-NH2 (linker 1-7-13 via TBMB; SMILES CC(=O)N[C@H]1CSCc2cc3cc(c2)CSC[C@H](NC(=O)[C@H](CCCNC(=N)N)NC(=O)[C@H](C)NC(=O)[C@@H]2CCCN2C(=O)[C@H](Cc2cccc4ccccc24)NC(=O)[C@H](CO)NC1=O)C(=O)N[C@@H](CC(C)C)C(=O)N[C@@H](Cc1c[nH]cn1)C(=O)N[C@@H](CCC(N)=O)C(=O)N[C@@H](CC(=O)O)C(=O)N[C@@H](CC(C)C)C(=O)N[C@H](C(N)=O)CSC3) [Ac-(06-34-18) 1NAL2] | 10.7
15 | Ac-CS[4Pal]PARCLHQDLC-NH2 (linker 1-7-13 via TBMB; SMILES CC(=O)N[C@H]1CSCc2cc3cc(c2)CSC[C@H](NC(=O)[C@H](CCCNC(=N)N)NC(=O)[C@H](C)NC(=O)[C@@H]2CCCN2C(=O)[C@H](Cc2ccncc2)NC(=O)[C@H](CO)NC1=O)C(=O)N[C@@H](CC(C)C)C(=O)N[C@@H](Cc1c[nH]cn1)C(=O)N[C@@H](CCC(N)=O)C(=O)N[C@@H](CC(=O)O)C(=O)N[C@@H](CC(C)C)C(=O)N[C@H](C(N)=O)CSC3) [Ac-(06-34-18) 4Pal2] | 72

biological target: T2, human plasma Kallikrein; assay: enzyme inhibition assay; remark: another data set of the same source

Row | Binder | Ki [nM]
16 | ACAWPAKCLTRELCA (linker 2-8-14 via TBMB, also called PK103) [1B1] | 8.1
17 | ACGVPYRCTHQEMCA (linker 2-8-14 via TBMB; not fully specified (N-terminus, C-terminus), also called PK111) [06-64 T] | 6.9
18 | ACGGYNNCRAFSYCA (linker 2-8-14 via TBMB, also called PK115) [1F7] | 2.2
19 | ACRWPARCLTTSLCA (linker 2-8-14 via TBMB; not fully specified (N-terminus, C-terminus), also called PK102) [06-59] | 0.5
20 | ACTWPARCTHQNWCA (linker 2-8-14 via TBMB; not fully specified (N-terminus, C-terminus), also called PK107) [06-09] | 1.2
21 | ACTWPARCTMQNWCA (linker 2-8-14 via TBMB, also called PK108) [06-A2*] | 181
22 | ACNWPYRCLHTDLCA (linker 2-8-14 via TBMB; not fully specified (N-terminus, C-terminus), also called PK110) [06-157] | 3.3
23 | ACADPWACLFRRPCA (linker 2-8-14 via TBMB; not fully specified (N-terminus, C-terminus), also called PK113) [06-63 T] | 1280
24 | ACSWPYRCLHQDYCA (linker 2-8-14 via TBMB; not fully specified (N-terminus, C-terminus), also called PK109) [06-61] | 5.8
25 | ACSWPARCNHQDLCA (linker 2-8-14 via TBMB; not fully specified (N-terminus, C-terminus), also called PK105) [06-57] | 0.4

biological target: T1, biotinylated human plasma Kallikrein; assay: phage binding assay, signal:background
Protocol: as §1
Selections against human plasma Kallikrein were performed with this library in order to study the non-WPAR (SEQ ID NO: 18) determinants of Kallikrein binding, and to isolate the optimal WPAR (SEQ ID NO: 18)-containing peptide sequence.

Row | Binder | Binding assay signal
26 | CSWPARCTHQDLC (linker 1-7-13 via TBMB) [SEQ ID NO 73] | 110
